We go through three molecules from US20180120332A1 (CLEMSON UNIVERSITY RESEARCH FOUNDATION, published 2018).

Ends that are not written are not given here.

B1: RGDS peptide (peptide)
peptide: RGDS
modifications: also: N-terminus conjugated to oxidized alginate (EDC-NHS) or methacrylated and co-polymerized with PEGDA
B2: α1 peptide (TFALRGDNP), RGD peptide derived from laminin α1 subunit (peptide)
peptide: TFALRGDNP
modifications: also: N-terminus conjugated to oxidized alginate (EDC-NHS) or methacrylated and co-polymerized with PEGDA
B3: RGDSP peptide (peptide)
peptide: RGDSP
modifications: also: N-terminus conjugated to oxidized alginate (EDC-NHS) or methacrylated and co-polymerized with PEGDA

The target of the assay is αvβ3 integrin on human umbilical vein endothelial cells (HUVECs) (human, UniProt P06756 31-1048; P05106 27-788). Put plainly: cell-based or functional assay.
Chain of αvβ3 integrin on human umbilical vein endothelial cells (HUVECs) (P06756 31-1048, chain 1 of 2): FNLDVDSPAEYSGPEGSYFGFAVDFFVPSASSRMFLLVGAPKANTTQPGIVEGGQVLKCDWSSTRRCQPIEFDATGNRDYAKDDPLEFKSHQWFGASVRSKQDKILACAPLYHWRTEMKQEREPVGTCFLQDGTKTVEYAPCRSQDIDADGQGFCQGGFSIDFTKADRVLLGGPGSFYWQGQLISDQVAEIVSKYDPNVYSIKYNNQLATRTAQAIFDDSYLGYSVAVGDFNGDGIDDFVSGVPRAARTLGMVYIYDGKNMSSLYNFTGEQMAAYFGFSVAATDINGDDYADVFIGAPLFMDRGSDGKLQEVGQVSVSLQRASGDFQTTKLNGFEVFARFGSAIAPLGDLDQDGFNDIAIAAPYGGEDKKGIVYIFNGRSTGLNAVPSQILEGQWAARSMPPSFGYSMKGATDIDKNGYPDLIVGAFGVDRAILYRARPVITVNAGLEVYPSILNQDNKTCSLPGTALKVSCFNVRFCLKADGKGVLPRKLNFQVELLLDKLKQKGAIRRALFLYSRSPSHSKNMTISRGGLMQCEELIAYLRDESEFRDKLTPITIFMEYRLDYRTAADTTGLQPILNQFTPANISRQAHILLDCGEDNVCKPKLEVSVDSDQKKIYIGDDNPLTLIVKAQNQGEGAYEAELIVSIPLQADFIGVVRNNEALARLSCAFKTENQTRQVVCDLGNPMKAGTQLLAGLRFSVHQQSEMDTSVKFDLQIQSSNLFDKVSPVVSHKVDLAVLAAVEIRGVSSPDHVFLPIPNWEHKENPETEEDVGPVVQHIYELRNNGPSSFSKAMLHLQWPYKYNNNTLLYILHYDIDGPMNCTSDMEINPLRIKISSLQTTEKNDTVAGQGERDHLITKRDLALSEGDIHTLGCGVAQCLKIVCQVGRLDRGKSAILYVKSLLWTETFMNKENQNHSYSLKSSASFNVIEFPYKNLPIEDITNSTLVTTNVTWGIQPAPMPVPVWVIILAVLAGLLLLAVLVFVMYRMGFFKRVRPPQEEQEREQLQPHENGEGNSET
Chain of αvβ3 integrin on human umbilical vein endothelial cells (HUVECs) (P05106 27-788, chain 2 of 2): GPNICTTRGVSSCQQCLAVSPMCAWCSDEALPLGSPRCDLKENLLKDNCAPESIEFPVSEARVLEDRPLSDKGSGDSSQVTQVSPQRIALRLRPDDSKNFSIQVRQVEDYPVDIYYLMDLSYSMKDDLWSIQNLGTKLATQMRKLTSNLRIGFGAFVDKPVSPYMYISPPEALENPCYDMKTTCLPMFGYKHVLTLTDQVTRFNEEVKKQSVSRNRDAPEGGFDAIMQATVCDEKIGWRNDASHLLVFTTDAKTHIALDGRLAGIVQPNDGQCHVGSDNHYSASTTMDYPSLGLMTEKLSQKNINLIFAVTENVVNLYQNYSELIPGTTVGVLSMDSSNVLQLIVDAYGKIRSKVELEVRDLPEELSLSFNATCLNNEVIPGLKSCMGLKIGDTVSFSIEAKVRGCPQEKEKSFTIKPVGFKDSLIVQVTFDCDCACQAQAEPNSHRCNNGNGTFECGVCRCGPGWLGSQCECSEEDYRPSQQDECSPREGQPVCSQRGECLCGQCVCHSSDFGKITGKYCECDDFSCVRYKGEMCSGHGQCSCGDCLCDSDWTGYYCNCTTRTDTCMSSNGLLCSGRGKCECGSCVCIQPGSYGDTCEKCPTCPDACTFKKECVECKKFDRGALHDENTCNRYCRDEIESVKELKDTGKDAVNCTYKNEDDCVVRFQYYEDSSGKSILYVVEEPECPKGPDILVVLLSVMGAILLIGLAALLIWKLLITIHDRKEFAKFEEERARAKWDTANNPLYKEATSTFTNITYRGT
In the case of B1, the “decrease in HUVEC adhesion on peptide functionalized alginate when αvβ3 integrin is blocked” value is roughly 35%. The same measure for B2: roughly 60%; for B3: roughly 35%.
